± gives the standard deviation.

This data set in a line: collision cross section of modified peptide (TIMS, N2, iRT-aligned); higher = larger / more extended gas-phase ion. The gist of the method:
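Collision cross section was derived from the Mason-Schamp equation. Each value averages 1–3 technical replicates of the most abundant feature per charge state, measured on a timsTOF Pro/HT in dda-PASEF mode (nitrogen, ~2.4 mbar) after a 120-min nanoflow C18 gradient at 60 °C. Synthetic peptide pools (~100 fmol/µL in 2% acetonitrile/0.1% formic acid, iRT standard spiked 1:40) were identified with MaxQuant, and 1/K0 was calibrated with three reference ions and aligned run-wise to the median iRT peptide deviation.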

The mark [1] stands for this setting: charge state: 2, modification: Glutarylation.
The mark [2] stands for this setting: charge state: 3, modification: Glutarylation.
Setting [3] is: charge state: 2, modification: HexNAc (ST).
Where [4] appears, read: charge state: 2, modification: hydroxyisobutyryl.
Setting [5] is: charge state: 3, modification: hydroxyisobutyryl.
Setting [6] is: charge state: 3, modification: Methyl (R).
Where [7] appears, read: charge state: 2, modification: Citrullination (R).
The mark [8] stands for this setting: charge state: 3, modification: Citrullination (R).
Setting [9] is: charge state: 2, modification: Trimethyl (K).
Where [10] appears, read: charge state: 3, modification: Trimethyl (K).
Where [11] appears, read: charge state: 2, modification: Nitro (Y).
The mark [12] stands for this setting: charge state: 2, modification: Butyryl.
Where [13] appears, read: charge state: 2, modification: Formyl.
[14] abbreviates: charge state: 2, modification: GlyGly (K).
Setting [15] is: charge state: 3, modification: GlyGly (K).
The mark [16] stands for this setting: charge state: 2, modification: Succinyl.
Setting [17] is: charge state: 3, modification: Succinyl.
[18] abbreviates: charge state: 2, modification: Biotin.
Where [19] appears, read: charge state: 2, modification: Acetyl (K).

“AAQASDLEKIHLDEK [_AAQASDLEK(Propionyl)IHLDEK_]”: where the note is “charge state: 3, modification: Propionyl”, the collision cross section stood at 496.94 Å².

Sequence “KYEEIDNAPEER [_K(Gluratylation)YEEIDNAPEER_]” came in with a collision cross section under setting [1] of 417.33 ± 0.59 Å² and a collision cross section under setting [2] of 495.54 ± 1 Å².

Take “DYSQPTAAATVQDIK [_DYSQPTAAAT(HexNAc (ST))VQDIK_]”: the collision cross section under setting [3] was 449.73 ± 0.61 Å².

As for “IHVQSSSDSSDEPAEKR [_IHVQSSSDSSDEPAEK(hydroxyisobutyryl)R_]”, the collision cross section reads like this: under setting [4], 455.71 ± 0.4 Å²; under setting [5], 514.66 ± 3.7 Å².

In turn, “SGGGYGGDRSSGGGYSGDR [_SGGGYGGDR(Methyl (R))SSGGGYSGDR_]” came in with a collision cross section under setting [6] of 484.52 ± 1.5 Å².

Regarding “LEEVTGKLQVAR [_LEEVTGK(Gluratylation)LQVAR_]”, the collision cross section is on record as 400.05 ± 0.12 Å² under setting [1] and 468.97 Å² under setting [2].

With “YSSSSIPEPFGSRGSPR [_YSSSSIPEPFGSR(Citrullination (R))GSPR_]”, the collision cross section is given as 439.28 ± 0.2 Å² under setting [7] and 523.88 Å² under setting [8].

Regarding “LEQVEKELLR [_LEQVEK(Trimethyl (K))ELLR_]”, the collision cross section by setting is: under setting [9], 387.44 ± 0.62 Å²; under setting [10], 446.8 ± 1.8 Å².

As for “SLFFGGKGAPLQR [_SLFFGGK(Dimethyl (K))GAPLQR_]”, the collision cross section reads like this: (charge state: 2, modification: Dimethyl (K)) 408.95 ± 0.54 Å²; (charge state: 3, modification: Dimethyl (K)) 451.66 ± 1.6 Å².

For DHLSDKESK [_DHLSDK(Malonyl)ESK_], the collision cross section was determined as 349.37 ± 0.029 Å² (charge state: 2, modification: Malonyl) and 411.48 Å² (charge state: 3, modification: Malonyl).

Regarding VGEFSGANKEK [_VGEFSGANK(Methyl (K))EK_], the collision cross section reads like this: (charge state: 2, modification: Methyl (K)) 374.84 ± 0.74 Å²; (charge state: 3, modification: Methyl (K)) 443.95 ± 6.6 Å².

For the sequence SVSSSSYR [_SVSSSSY(Nitro (Y))R_], the collision cross section under setting [11] is reported as 311.12 ± 0.16 Å².

As for ALLQAKASGK [_ALLQAK(Butyryl)ASGK_], the collision cross section under setting [12] is reported as 352.22 ± 2.3 Å².

In the case of “LTEKELAEAASK [_LTEK(hydroxyisobutyryl)ELAEAASK_]”, the collision cross section under setting [4] is given as 392.48 ± 2 Å² and the collision cross section under setting [5] was found to be 455.87 ± 2.2 Å².

As for IGNSYFKEEK [_IGNSYFK(Propionyl)EEK_], the collision cross section (charge state: 2, modification: Propionyl) is recorded as 375.51 ± 0.65 Å².

As to “DYVSQFEGSALGK [_DY(Nitro (Y))VSQFEGSALGK_]”, the collision cross section under setting [11] was found to be 387.16 ± 0.17 Å².

As for VFSIISSEKELK [_VFSIISSEK(Formyl)ELK_], under setting [13], the collision cross section is 402.55 ± 0.42 Å².

With “STNVTVAAARGIK [_STNVTVAAAR(Methyl (R))GIK_]”, the collision cross section is, setting by setting: (charge state: 2, modification: Methyl (R)) 403.35 ± 0.97 Å²; under setting [6], 483.31 ± 3.1 Å².

Take “LQDVSGQLSSSKK [_LQDVSGQLSSSK(Gluratylation)K_]”: the collision cross section is, setting by setting: under setting [1], 404.29 ± 0.99 Å²; under setting [2], 482.96 ± 1.3 Å².

For the sequence “IEDEQALGSQLQK [_IEDEQALGS(HexNAc (ST))QLQK_]”, the collision cross section is, setting by setting: under setting [3], 424.7 ± 0.62 Å²; (charge state: 3, modification: HexNAc (ST)) 499.3 ± 0.96 Å².

With MFLSFPTTK [_MFLS(HexNAc (ST))FPTTK_], the collision cross section under setting [3] came to 373.63 ± 0.17 Å².

KYEEIDNAPEER [_K(Formyl)YEEIDNAPEER_] yielded a collision cross section under setting [13] of 405.5 ± 0.74 Å².

“GSLGAQKLANTCFNEIEK [_GSLGAQK(Butyryl)LANTCFNEIEK_]” came in with a collision cross section under setting [12] of 475.25 ± 0.74 Å².

Take LQLEIDQKK [_LQLEIDQK(GlyGly (K))K_]: the collision cross section turned out to be 376.75 ± 0.46 Å² under setting [14] and 433 ± 2.7 Å² under setting [15].

With LLEEEDSKLK [_LLEEEDSK(Succinyl)LK_], the collision cross section is, setting by setting: under setting [16], 381.87 ± 0.24 Å²; under setting [17], 464.35 Å².

Under setting [18], LTEKELAEAASK [_LTEK(Biotin)ELAEAASK_] yielded a collision cross section of 418.47 ± 3 Å².

On to “LQAAYAGDKADDIQK [_LQAAYAGDK(Formyl)ADDIQK_]”, for which the collision cross section under setting [13] was 428.24 ± 0.79 Å².

Regarding “SPSDSGYSYETIGKTTK [_SPSDSGYSYETIGK(Trimethyl (K))TTK_]”, the collision cross section is on record as 455.09 ± 0.58 Å² under setting [9] and 517.28 ± 2.4 Å² under setting [10].

With TEVLSPNSKVESK [_TEVLSPNSK(Formyl)VESK_], the collision cross section runs as follows: under setting [13], 404.6 ± 5.2 Å²; (charge state: 3, modification: Formyl) 443.86 ± 4.1 Å².

As to IVNVSLADLR [_IVNVS(HexNAc (ST))LADLR_], the collision cross section under setting [3] worked out at 388.29 ± 1.2 Å².

As to “LTSLNVKYNNDK [_LTSLNVK(Acetyl (K))YNNDK_]”, under setting [19], the collision cross section is 407.77 ± 1 Å².

Consider “VPTTEKPTVTVNFR [_VPTTEK(Crotonyl)PTVTVNFR_]”, for which the collision cross section runs as follows: (charge state: 2, modification: Crotonyl) 427.61 ± 0.55 Å²; (charge state: 3, modification: Crotonyl) 510.39 Å².

Consider “ITESVAETAQTIKK [_ITESVAETAQTIK(Gluratylation)K_]”, for which the collision cross section turned out to be 429.83 ± 0.97 Å² under setting [1] and 514.64 ± 1.7 Å² under setting [2].

Consider “GFALVGVGSEASSKK [_GFALVGVGSEASSK(Succinyl)K_]”, for which the collision cross section is, setting by setting: under setting [16], 413.38 ± 0.54 Å²; under setting [17], 497.13 ± 2.5 Å².

Regarding “TVSKVDDFLANEAK [_TVSK(Formyl)VDDFLANEAK_]”, the collision cross section under setting [13] was determined as 415.84 ± 0.18 Å².

Regarding “HGGSGGRGVSVSSAR [_HGGSGGR(Citrullination (R))GVSVSSAR_]”, under setting [8], the collision cross section worked out at 485.51 ± 3.7 Å².

Under setting [18], “DKALPLEAEVAPVK [_DK(Biotin)ALPLEAEVAPVK_]” displayed a collision cross section of 435.06 Å².

Sequence “LEENHYNTYISK [_LEENHYNTY(Nitro (Y))ISK_]” displayed a collision cross section under setting [11] of 425.11 ± 1.1 Å² and a collision cross section (charge state: 3, modification: Nitro (Y)) of 478.71 ± 0.24 Å².

For “ASAISIKLGSSK [_ASAISIK(hydroxyisobutyryl)LGSSK_]”, the collision cross section under setting [4] turned out to be 374.73 ± 0.8 Å².

Regarding “RGGFAVQAK [_R(Citrullination (R))GGFAVQAK_]”, the collision cross section under setting [7] is reported as 326.29 ± 0.63 Å².

For the sequence “DAIHFYNKSLAEHR [_DAIHFYNK(hydroxyisobutyryl)SLAEHR_]”, the collision cross section under setting [5] is reported as 512.82 ± 2.8 Å².

Consider “SKLLFSNTAAQK [_SK(GlyGly (K))LLFSNTAAQK_]”, for which the collision cross section amounted to 396.71 ± 0.37 Å² under setting [14] and 447.27 ± 13 Å² under setting [15].

Under setting [8], “PSIHGGSGGRGVSVSSAR [_PSIHGGSGGR(Citrullination (R))GVSVSSAR_]” gave a collision cross section of 486.3 ± 5 Å².

As for “PRGVISTPVIR [_PR(Citrullination (R))GVISTPVIR_]”, the collision cross section is recorded as 367.21 ± 0.24 Å² under setting [7] and 478.04 Å² under setting [8].

“DVNAAIAAIKTK [_DVNAAIAAIK(Trimethyl (K))TK_]” had a collision cross section under setting [9] of 402.42 ± 1.1 Å² and a collision cross section under setting [10] of 465.71 ± 2.2 Å².

As for “DAIHFYNKSLAEHR [_DAIHFYNK(Acetyl (K))SLAEHR_]”, the collision cross section runs as follows: under setting [19], 449.95 Å²; (charge state: 3, modification: Acetyl (K)) 504.71 ± 0.24 Å².

“VFSIISSEKELK [_VFSIISSEK(Acetyl (K))ELK_]”: under setting [19], the collision cross section is reported as 405.7 ± 0.9 Å².

As to “ALASIDSKLNQAK [_ALASIDSK(Acetyl (K))LNQAK_]”, under setting [19], the collision cross section is on record as 399.37 ± 2 Å².

The record behind these values is the supplement of paper PMC10598134.
